Results: paper PMC2756588

T1: Bud14, P27637
T1 sequence (P27637 247-328, looked up): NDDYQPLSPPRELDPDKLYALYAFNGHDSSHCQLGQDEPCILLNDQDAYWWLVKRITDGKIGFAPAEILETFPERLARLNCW

T2: Boi2, P39969
T2 sequence (P39969 32-116, looked up): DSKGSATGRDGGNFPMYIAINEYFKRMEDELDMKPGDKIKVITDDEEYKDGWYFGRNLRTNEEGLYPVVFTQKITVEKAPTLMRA

T3: Nbp2, Q12163
T3 sequence (Q12163 103-180, looked up): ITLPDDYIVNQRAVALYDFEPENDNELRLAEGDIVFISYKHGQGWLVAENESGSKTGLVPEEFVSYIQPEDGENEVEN

T4: Cdc25, P04821
T4 sequence (P04821 50-136, looked up): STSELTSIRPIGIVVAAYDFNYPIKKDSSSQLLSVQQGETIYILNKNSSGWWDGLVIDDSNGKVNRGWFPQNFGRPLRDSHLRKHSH

T5: Boi1, P38041
T5 sequence (P38041 1-86, looked up): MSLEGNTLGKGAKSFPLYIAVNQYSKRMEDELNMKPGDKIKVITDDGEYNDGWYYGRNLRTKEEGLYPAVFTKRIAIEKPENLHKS

T6: Cyk3, Q07533
T6 sequence (Q07533 1-83, looked up): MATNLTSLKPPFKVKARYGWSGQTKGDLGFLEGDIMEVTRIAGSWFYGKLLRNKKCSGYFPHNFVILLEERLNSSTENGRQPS

T7: Fus1, P11710
T7 sequence (P11710 432-512, looked up): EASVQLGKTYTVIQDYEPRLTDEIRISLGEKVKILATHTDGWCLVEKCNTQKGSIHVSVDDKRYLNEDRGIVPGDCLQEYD

T8: Abp1, P15891
T8 sequence (P15891 535-592, looked up): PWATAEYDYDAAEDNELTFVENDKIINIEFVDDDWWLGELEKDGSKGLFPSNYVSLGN

T9: Sla1-2, P32790
T9 sequence (P32790 60-140, looked up): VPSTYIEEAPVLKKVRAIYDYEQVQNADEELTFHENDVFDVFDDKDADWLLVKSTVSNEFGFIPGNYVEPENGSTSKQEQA

T10: Bzz1-2, P38822
T10 sequence (P38822 568-633, looked up): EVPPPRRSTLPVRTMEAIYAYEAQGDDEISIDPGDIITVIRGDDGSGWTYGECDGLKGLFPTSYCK

T11: Bbc1, P47068
T11 sequence (P47068 1-78, looked up): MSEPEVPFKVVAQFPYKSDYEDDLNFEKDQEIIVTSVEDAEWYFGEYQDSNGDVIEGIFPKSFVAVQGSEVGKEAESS

T12: Hof1, Q05080
T12 sequence (Q05080 590-669, looked up): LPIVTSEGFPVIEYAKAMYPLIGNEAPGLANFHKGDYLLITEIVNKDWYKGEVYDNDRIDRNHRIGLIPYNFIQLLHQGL

T13: Myo5, Q04439
T13 sequence (Q04439 1072-1160, looked up): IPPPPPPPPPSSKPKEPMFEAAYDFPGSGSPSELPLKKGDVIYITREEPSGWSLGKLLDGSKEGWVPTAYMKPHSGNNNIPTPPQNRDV

T14: Lsb4, P32793
T14 sequence (P32793 402-468, looked up): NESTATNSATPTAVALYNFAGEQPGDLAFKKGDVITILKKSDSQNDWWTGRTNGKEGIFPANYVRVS

T15: Hse1, P38753
T15 sequence (P38753 208-285, looked up): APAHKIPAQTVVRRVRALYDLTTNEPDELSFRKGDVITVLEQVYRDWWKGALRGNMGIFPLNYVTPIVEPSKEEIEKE

T16: Lsb1, P53281
T16 sequence (P53281 45-122, looked up): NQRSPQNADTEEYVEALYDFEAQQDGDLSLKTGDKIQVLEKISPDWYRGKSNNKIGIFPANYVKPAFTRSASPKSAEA

T17: Pex13, P80667
T17 sequence (P80667 295-386, looked up): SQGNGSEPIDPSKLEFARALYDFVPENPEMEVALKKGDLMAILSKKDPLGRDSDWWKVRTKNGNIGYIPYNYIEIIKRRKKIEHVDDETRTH

T18: Pin3, Q06449
T18 sequence (Q06449 53-122, looked up): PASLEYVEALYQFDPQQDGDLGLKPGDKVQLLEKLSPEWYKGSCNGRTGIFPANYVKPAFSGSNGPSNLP

T19: Bzz1-1, P38822
T19 sequence (P38822 478-572, looked up): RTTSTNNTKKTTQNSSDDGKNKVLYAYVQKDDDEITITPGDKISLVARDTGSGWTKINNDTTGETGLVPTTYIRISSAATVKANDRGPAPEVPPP

T20: Lsb3, P43603
T20 sequence (P43603 385-451, looked up): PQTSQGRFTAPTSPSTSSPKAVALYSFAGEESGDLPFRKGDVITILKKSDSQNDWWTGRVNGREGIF

T21: Sla1-3, P32790
T21 sequence (P32790 344-424, looked up): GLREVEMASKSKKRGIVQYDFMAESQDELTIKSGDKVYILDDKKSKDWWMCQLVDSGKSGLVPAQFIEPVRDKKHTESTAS


What was measured:
Assay in all cases: SPOT array
[1] = target: T1, Bud14, P27637; settings: median of control spots 956
[2] = target: T2, Boi2, P39969; settings: median of control spots 1161
[3] = target: T3, Nbp2, Q12163; settings: median of control spots 357
[4] = target: T4, Cdc25, P04821; settings: median of control spots 969
[5] = target: T5, Boi1, P38041; settings: median of control spots 1162
[6] = target: T6, Cyk3, Q07533; settings: median of control spots 1451
[7] = target: Myo3, P36006; settings: median of control spots 468
[8] = target: Sho1, P40073; settings: median of control spots 1148
[9] = target: T7, Fus1, P11710; settings: median of control spots 1200
[10] = target: T8, Abp1, P15891; settings: median of control spots 935
[11] = target: T9, Sla1-2, P32790; settings: median of control spots 712
[12] = target: T10, Bzz1-2, P38822; settings: median of control spots 4538
[13] = target: T11, Bbc1, P47068; settings: median of control spots 796
[14] = target: T12, Hof1, Q05080; settings: median of control spots 4086
[15] = target: GST; settings: median of control spots 978
[16] = target: T13, Myo5, Q04439; settings: median of control spots 471
[17] = target: Rvs167, P39743; settings: median of control spots 2707
[18] = target: T14, Lsb4, P32793; settings: median of control spots 397
[19] = target: Bem1-1, P29366; settings: median of control spots 4282
[20] = target: T15, Hse1, P38753; settings: median of control spots 1727
[21] = target: T16, Lsb1, P53281; settings: median of control spots 388
[22] = target: T17, Pex13, P80667; settings: median of control spots 1341
[23] = target: Bem1-2, P29366; settings: median of control spots 4347
[24] = target: T18, Pin3, Q06449; settings: median of control spots 2171
[25] = target: T19, Bzz1-1, P38822; settings: median of control spots 4446
[26] = target: T20, Lsb3, P43603; settings: median of control spots 406
[27] = target: T21, Sla1-3, P32790; settings: median of control spots 5475

Rvs167, P39743, sequence (P39743 419-482): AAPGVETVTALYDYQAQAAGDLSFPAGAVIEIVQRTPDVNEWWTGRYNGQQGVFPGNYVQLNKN
Bem1-1, P29366, sequence (P29366 55-141): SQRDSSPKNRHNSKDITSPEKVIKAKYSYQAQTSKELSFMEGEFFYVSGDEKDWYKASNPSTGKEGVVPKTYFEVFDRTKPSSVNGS
Sho1, P40073, sequence (P40073 287-367): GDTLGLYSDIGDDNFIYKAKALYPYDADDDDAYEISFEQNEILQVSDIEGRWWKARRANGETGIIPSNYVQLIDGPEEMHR
Bem1-2, P29366, sequence (P29366 139-227): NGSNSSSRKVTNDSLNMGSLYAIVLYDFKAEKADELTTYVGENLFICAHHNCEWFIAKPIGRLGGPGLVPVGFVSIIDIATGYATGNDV

Binder | SPOT intensity [1] | SPOT intensity [2] | SPOT intensity [3] | SPOT intensity [4] | SPOT intensity [5] | SPOT intensity [6] | SPOT intensity [7] | SPOT intensity [8] | SPOT intensity [9] | SPOT intensity [10] | SPOT intensity [11] | SPOT intensity [12] | SPOT intensity [13] | SPOT intensity [14] | SPOT intensity [15] | SPOT intensity [16] | SPOT intensity [17] | SPOT intensity [18] | SPOT intensity [19] | SPOT intensity [20] | also measured
RHLKLVPSTPMDIPW | 8 | 0 | 3 | 14 | 0 | 0 | 81 | 72 | 1430 | 37 | 3 | 411 | 1 | 59 | 0 | 10 | 43 | 6 | 189 | 134 | SPOT intensity [21]: 14; SPOT intensity [22]: 99; SPOT intensity [23]: 90; SPOT intensity [24]: 329; SPOT intensity [25]: 6; SPOT intensity [26]: 0; SPOT intensity [27]: 290
TPEIPPPLPPKIMVH | 0 | 0 | 0 | 2 | 0 | 0 | 304 | 52 | 0 | 2 | 0 | 0 | 0 | 2240 | 0 | 87 | 0 | 42 | 0 | 1540 | SPOT intensity [21]: 0; SPOT intensity [22]: 321; SPOT intensity [23]: 0; SPOT intensity [24]: 20; SPOT intensity [25]: 0; SPOT intensity [26]: 96; SPOT intensity [27]: 0
IFLRISINFPLNYPN | 18 | 3 | 74 | 91 | 24 | 5 | 71 | 134 | 655 | 212 | 12 | 70 | 192 | 15 | 0 | 15 | 1 | 14 | 8 | 143 | SPOT intensity [21]: 71; SPOT intensity [22]: 76; SPOT intensity [23]: 3; SPOT intensity [24]: 101; SPOT intensity [25]: 6; SPOT intensity [26]: 10; SPOT intensity [27]: 199
PLRRTVMSLPGNHDI | 2 | 0 | 18 | 16 | 0 | 0 | 23 | 12 | 1 | 24 | 3 | 1 | 0 | 0 | 0 | 12 | 0 | 0 | 1 | 1 | SPOT intensity [21]: 75; SPOT intensity [22]: 31; SPOT intensity [23]: 6; SPOT intensity [24]: 72; SPOT intensity [25]: 1; SPOT intensity [26]: 0; SPOT intensity [27]: 0
